Assay results taken from publication PMC5123727 (International Journal of Nanomedicine, 2016).
“Also recorded” adds a separate entry of the source. Peptide text beside a SMILES is read from it. * marks the point of attachment. X1 = CCc1c2c(nc3ccc(OC(=O)[C@H]4CC[C@H](CNC(=O)[C@H]5CC[C@H](CN6C(=O)CC(*)C6=O)CC5)CC4)cc13)-c1cc3c(c(=O)n1C2)COC(=O)[C@]3(O)CC

Legend:
human basophils = conditions: in vitro, preclinical, ref not given; cited from earlier work
cardiac repolarization = test: Cardiovascular effects: QRS and QTc intervals; format: in vivo, human
[1] = test system: advanced or metastatic solid tumors; test: Tumor response; format: in vivo, human
dog basophils = conditions: in vitro, preclinical, ref not given; cited from earlier work
[2] = Phase I plasma pharmacokinetics of DTS-108, SN-38 and SN-38G; format: in vivo; conditions: human, iv
[3] = dogs, 4.5–53 mg free base/kg; preclinical, ref not given; cited from earlier work
[4] = Phase I dose escalation: toxicity; format: in vivo, human; conditions: for Other toxicities: Type of toxicity and grade: UR unrelated, R probably related
Solubility in water = format: physicochemical
[5] = dose 313 mg/m^2, Hyperbilirubinemia (UR)
[6] = drug-related, repeated dosing, all doses, n=42

Compound: CCc1c2c(nc3ccc(OC(=O)[C@H]4CC[C@H](CNC(=O)[C@H]5CC[C@H](CN6C(=O)CC(SC[C@H](N)C(=O)N[C@H](C(=O)N[C@@H](CCCCN)C(=O)N[C@@H](CCCNC(=N)N)C(=O)NCC(=O)N[C@@H](CC(C)C)C(=O)N[C@@H](CCCCN)C(=O)N[C@@H](CC(C)C)C(=O)N[C@@H](CCCNC(=N)N)C(=O)N[C@@H](Cc7c[nH]cn7)C(=O)N[C@H](C(=O)N[C@@H](CCCNC(=N)N)C(=O)N7CCC[C@H]7C(=O)N[C@@H](CCCNC(=N)N)C(=O)N[C@H](C(=O)N[C@H](C(=O)N[C@@H](CCCNC(=N)N)C(=O)N[C@@H](CCSC)C(=O)N[C@@H](CC(=O)O)C(=O)N[C@H](C(=O)O)C(C)C)[C@@H](C)O)C(C)C)C(C)C)C(C)C)C6=O)CC5)CC4)cc13)-c1cc3c(c(=O)n1C2)COC(=O)[C@]3(O)CC (stereo partly drawn) [DTS-108] (H-C(X1)VKRGLKLRHVRPRVTRMDV-OH)
- histamine release (human basophils): histamine release induced
- changes in QRS morphology or interval measurements (cardiac repolarization; all doses): no clinically significant drug-related changes
- instances of postdose QTc >450 ms (cardiac repolarization; all doses): four
- instances of postdose QTc >500 ms (cardiac repolarization; all doses): no instances
- QTc at the end of dosing (cardiac repolarization; one patient, 416 mg/m^2, cycle 3, predose QTc 391 ms): 484 ms
- objective response ([1]; 42 patients): No patient
- median progression-free survival ([1]; 95% CI 3–17 months): 11 months
- patients with stable disease status maintained for six cycles or longer ([1]; in vivo): seven
- histamine release (dog basophils): histamine release induced
- Tmax ([2]; 3 mg/m2): 0.25 h
- Tmax ([2]; 6 mg/m2): 1 h
- Tmax ([2]; 12 mg/m2): 0.97 h
- Tmax ([2]; 24 mg/m2): 0.98 h
- Tmax ([2]; 32 mg/m2): 1.11 h
- Tmax ([2]; 42 mg/m2): 1.32 h
- Tmax ([2]; 56 mg/m2): 0.96 h
- Tmax ([2]; 75 mg/m2): 1.44 h
- Tmax ([2]; 100 mg/m2): 1.31 h
- Tmax ([2]; 133 mg/m2): 0.99 h
- Tmax ([2]; 177 mg/m2): 1.45 h
- Tmax ([2]; 235 mg/m2): 1.27 h
- AUC(0-inf) ([2]; 313 mg/m2): 439 µg·h/mL
- Tmax ([2]; 313 mg/m2): 1.68 h
- Tmax ([2]; 416 mg/m2): 2.47 h
- resolution of immediate effects resembling an infusion reaction [3]: resolved spontaneously within a few hours
- severity of immediate effects resembling an infusion reaction [3]: moderate severity
- patients with Grade 3 neutropenia ([4]; 235 mg/m^2): one of four
- patients with Grade 3 neutropenia ([4]; 313 mg/m^2): four of six
- patients with no dose-limiting neutropenia ([4]; 313 mg/m^2): five of the six
- patients with Grade 3 neutropenia ([4]; 416 mg/m^2): four of six
- patients with dose reductions to 313 mg/m^2 ([4]; 416 mg/m^2): three of six
- patients with grade 4 neutropenia ([4]; 416 mg/m^2): three out of six
- patients with infusion reactions ([4]; Cohort 11, 177 mg/m^2): all three
- nephrotoxicity ([4]; all doses): no evidence of nephrotoxicity
- dose-limiting toxicity (DLT) ([4]; cycle 1): Neutropenia
- Other toxicities Grades 1–2, patients ([4]; dose 32 mg/m^2, Hyperbilirubinemia (UR)): 1
- Other toxicities Grades 1–2, patients ([4]; dose 32 mg/m^2, Respiratory and thoracic disorder (UR)): 1
- Other toxicities: Type of toxicity and grade ([4]; dose 32 mg/m^2): Respiratory and thoracic disorder (UR); also recorded: Hyperbilirubinemia (UR)
- Other toxicities Grades 1–2, patients ([4]; dose 42 mg/m^2, Retroperitoneal hematoma (UR)): 1
- Other toxicities: Type of toxicity and grade ([4]; dose 42 mg/m^2): Retroperitoneal hematoma (UR)
- Other toxicities Grades 1–2, patients ([4]; dose 56 mg/m^2, Acute pancreatitis (UR)): 1
- Other toxicities Grades 1–2, patients ([4]; dose 56 mg/m^2, Hyperbilirubinemia (UR)): 1
- Other toxicities: Type of toxicity and grade ([4]; dose 56 mg/m^2): Acute pancreatitis (UR); also recorded: Hyperbilirubinemia (UR)
- Neutropenia All grades, patients ([4]; dose 75 mg/m^2, 3 patients): 1
- Neutropenia All grades, patients ([4]; dose 100 mg/m^2, 3 patients): 1
- Other toxicities Grades 1–2, patients ([4]; dose 100 mg/m^2, Complete left lung atelectasy (UR)): 1
- Other toxicities: Type of toxicity and grade ([4]; dose 100 mg/m^2): Complete left lung atelectasy (UR)
- Neutropenia All grades, patients ([4]; dose 133 mg/m^2, 4 patients): 3
- Other toxicities Grades 1–2, patients ([4]; dose 133 mg/m^2, Hyperbilirubinemia (UR)): 1
- Other toxicities: Type of toxicity and grade ([4]; dose 133 mg/m^2): Hyperbilirubinemia (UR)
- Neutropenia All grades, patients ([4]; dose 177 mg/m^2, 3 patients): 1
- Other toxicities: Type of toxicity and grade ([4]; dose 177 mg/m^2): Vomiting (R), diarrhea (R), and nausea (R)
- Other toxicities Grades 1–2, patients ([4]; dose 177 mg/m^2, Vomiting (R), diarrhea (R), and nausea (R)): 1
- Neutropenia All grades, patients ([4]; dose 236 mg/m^2, 4 patients): 1
- Neutropenia Grades 3–4, patients ([4]; dose 236 mg/m^2, 4 patients): 1
- Other toxicities Grades 1–2, patients ([4]; dose 236 mg/m^2, Edema of lower limb (UR)): 1
- Other toxicities: Type of toxicity and grade ([4]; dose 236 mg/m^2): Edema of lower limb (UR); also recorded: Vomiting (R) and diarrhea (R)
- Other toxicities Grades 1–2, patients ([4]; dose 236 mg/m^2, Vomiting (R)): 1
- Other toxicities Grades 3–4, patients ([4]; dose 236 mg/m^2, Vomiting (R) and diarrhea (R)): 1
- Neutropenia All grades, patients ([4]; dose 313 mg/m^2, 6 patients): 6
- Neutropenia Grades 3–4, patients ([4]; dose 313 mg/m^2, 6 patients): 4
- Other toxicities Grades 3–4, patients ([4]; dose 313 mg/m^2, Diarrhea (R)): 1
- Other toxicities Grades 1–2, patients [4, 5]: 1
- Other toxicities Grades 3–4, patients [4, 5]: 1
- Other toxicities: Type of toxicity and grade ([4]; dose 313 mg/m^2): Diarrhea (R); also recorded: Hyperbilirubinemia (UR)
- Neutropenia All grades, patients ([4]; dose 416 mg/m^2, 6 patients): 6
- Neutropenia Grades 3–4, patients ([4]; dose 416 mg/m^2, 6 patients): 4
- Other toxicities: Type of toxicity and grade ([4]; dose 416 mg/m^2): Vomiting (UR), pyrexia (UR), and chills (R)
- Other toxicities Grades 1–2, patients ([4]; dose 416 mg/m^2, Vomiting (UR), pyrexia (UR), and chills (R)): 1
- Abdominal pain: Number of patients with ≥1 adverse event [4, 6]: 8
- Abdominal pain: Total (%) [4, 6]: 19.0%
- Alanine aminotransferase elevation increased: Number of patients with ≥1 adverse event [4, 6]: 5
- Alanine aminotransferase elevation increased: Total (%) [4, 6]: 11.9%
- Alopecia: Number of patients with ≥1 adverse event [4, 6]: 8
- Alopecia: Total (%) [4, 6]: 19.0%
- Anemia: Number of patients with ≥1 adverse event [4, 6]: 13
- Anemia: Total (%) [4, 6]: 31.0%
- Anorexia: Number of patients with ≥1 adverse event [4, 6]: 9
- Anorexia: Total (%) [4, 6]: 21.4%
- Ascites: Number of patients with ≥1 adverse event [4, 6]: 5
- Ascites: Total (%) [4, 6]: 11.9%
- Asthenia: Number of patients with ≥1 adverse event [4, 6]: 18
- Asthenia: Total (%) [4, 6]: 42.9%
- Constipation: Number of patients with ≥1 adverse event [4, 6]: 6
- Constipation: Total (%) [4, 6]: 14.3%
- Cough: Number of patients with ≥1 adverse event [4, 6]: 5
- Cough: Total (%) [4, 6]: 11.9%
- Diarrhea: Number of patients with ≥1 adverse event [4, 6]: 17
- Diarrhea: Total (%) [4, 6]: 40.5%
- Dyspnea: Number of patients with ≥1 adverse event [4, 6]: 9
- Hypoalbuminemia: Number of patients with ≥1 adverse event [4, 6]: 5
- Hypoalbuminemia: Total (%) [4, 6]: 11.9%
- Leukopenia: Number of patients with ≥1 adverse event [4, 6]: 6
- Leukopenia: Total (%) [4, 6]: 14.3%
- Lymphopenia: Number of patients with ≥1 adverse event [4, 6]: 7
- Lymphopenia: Total (%) [4, 6]: 16.7%
- Nausea: Number of patients with ≥1 adverse event [4, 6]: 18
- Nausea: Total (%) [4, 6]: 42.9%
- Neutropenia: Number of patients with ≥1 adverse event [4, 6]: 8
- Neutropenia: Total (%) [4, 6]: 19.0%
- Pyrexia: Number of patients with ≥1 adverse event [4, 6]: 7
- Pyrexia: Total (%) [4, 6]: 16.7%
- Rash: Number of patients with ≥1 adverse event [4, 6]: 9
- Rash: Total (%) [4, 6]: 21.4%
- Vomiting: Number of patients with ≥1 adverse event [4, 6]: 14
- Vomiting: Total (%) [4, 6]: 33.3%
- Weight decreased >10%: Number of patients with ≥1 adverse event [4, 6]: 5
- Weight decreased >10%: Total (%) [4, 6]: 11.9%
- recommended Phase II dose (RP2D) ([4]; iv 2-hour infusion every 2 weeks): 313 mg/m^2
- maximum tolerated dose (MTD) ([4]; iv every 2 weeks, patients with advanced/metastatic solid tumors): 313 mg/m^2
- solubility in water (Solubility in water): highly soluble
